Experimental findings from patent US7572600B2, “Enzymatic activities in chemokine-mediated inflammation” (Chemocentryx, Inc., priority 2004, dated 2009) are described below.

Read-outs that look alike come from different tables or passages of the source. Where no end group is shown, it is not given here.

One assay addresses T1, FPRL1 (Homo sapiens, UniProt P25090).
T1 sequence (P25090 1-351): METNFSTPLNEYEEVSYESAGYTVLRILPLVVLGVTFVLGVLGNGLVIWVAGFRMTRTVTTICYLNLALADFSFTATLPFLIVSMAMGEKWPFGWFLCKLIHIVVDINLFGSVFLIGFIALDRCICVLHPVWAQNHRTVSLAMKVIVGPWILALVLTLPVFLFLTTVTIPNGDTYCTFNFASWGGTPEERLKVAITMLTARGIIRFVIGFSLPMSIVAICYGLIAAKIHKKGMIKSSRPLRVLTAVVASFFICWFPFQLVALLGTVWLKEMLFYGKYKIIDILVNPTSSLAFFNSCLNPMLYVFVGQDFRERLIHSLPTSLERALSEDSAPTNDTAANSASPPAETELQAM
The assay can be described thus: Receptor signaling (calcium mobilization) in L1.2-FPRL1 cells. In kind it is cell-based. Details: expressed in transfected cells. Conditions: for calcium mobilization in the FPRL1 transfectant: L1.2 cells stably expressing human FPRL1, undigested; for Designation and FPRL1 Activity: SHAAGtide and truncated/other variants. As for the experimental part:
(§1) Receptor signaling assay. For individual measurements, cells were loaded for 45 min at room temperature with 2 μM indo-1/AM (Invitrogen, Carlsbad Calif.) in culture medium, then washed with 10 ml PBS and resuspended at 10^6 cells/ml in HBSS containing 0.1% BSA. Cytosolic calcium levels were determined using a Photon Technology International fluorimeter (excitation at 350 nm, ratio of dual emission at 400 and 490 nm). For measuring calcium dose responses, cells were analyzed with a Fluorometric Imaging Plate Reader 384 (FLIPR^384) (Molecular Devices, Sunnyvale, Calif.). Cells were loaded for 1 hr at 37° C. with 5 μM fluo-4 in HBSS with 0.1% BSA, then washed, transferred to black-wall 96-well plates, and subsequently excited at 505 nm with emission recorded at 530 nm with a standard protocol provided by the manufacture. Cells were stimulated with agonists 20 s after the monitoring of fluorescence began. Data were analyzed and plotted in arbitrary units of fluorescence using Prism. To ensure that responses were specific to FPRL1, we utilized a selective small-molecule antagonist of human FPRL1, generated by ChemoCentryx, which was optimized from a high throughput compound library screening approach.
Since FPRL1 has been reported to interact with low affinity and/or potency with a spectrum of potential pathogenic ligands of viral, bacterial and endogenous origin, we performed comparative functional analyses to determine the precise functional domain for the SHAAGtide (FIG. 14). SHAAGtides containing N-terminal and C-terminal truncations and extensions were synthesized, and potencies for receptor signaling in L1.2-FPRL1 cells were tested. […] After removal of the N-terminal amino acid (Met) from SHAAGtide, its potency is reduced approximately 10 fold. Removal of the first two N-terminal amino acids (Met-Leu) totally abolished SHAAGtide's activity on FPRL1. Conversely, removal of the C-terminal three amino residues (AAG) from SHAAGtide had no effect on its activity on FPRL1. Removal of the C-terminal six residues (LSHAAG) reduced the peptide's potency only 3-fold. Many other purported naturally-occurring FPRL1 ligands, including serum amyloid A (SAA), beta-amyloid protein 42, lipoxin A4 and the bacterial tripeptide fMLP were tested.

The subject of the next assay is human neutrophils. Description: Calcium mobilization in freshly isolated human neutrophils. In kind it is cell-based. As for the experimental part: (§2) Calcium Mobilization Assay. Cells were loaded for 1 hour with 2 μM indo-1/AM dye (Molecular Probes, Eugene, Oreg.) in culture medium, then washed with 10 ml PBS and resuspended at 10^6/ml in HBSS containing 1% FBS. Cytosolic calcium responses were determined using a Photon Technology International (Lawrenceville, N.J.) fluorimeter, with excitation at 350 nm and dual emission at 400 and 490 nm. Alternatively, cells were loaded with 5 μg/ml Fluo-4 AM dye (Molecular Probes, Eugene, Oreg.), then washed and analyzed on a Fluorometric Imaging Plate Reader 384 (FLIPR^384 Molecular Devices, Sunnyvale, Calif.), with 505 nm excitation and 530 nm emission.
as §1
(Calcium flux is commonly read through the fluorescence of an indicator in the cells.)

A further assay deals with THP-1 cells. The assay can be described thus: THP-1 chemotaxis assay. It counts as cell-based, human. Conditions: for EC50: THP-1 cells. On the procedure: Chemotaxis assay. L1.2-CCR1 transfectants, THP-1 cells, human monocytes and human neutrophils were collected by centrifugation and resuspended in HBSS containing 0.1% BSA. Chemotaxis assays were performed in 96-well ChemoTx® microplates (Neuroprobe, Rockville, Md.) as follows. Chemokines were added to the lower wells (final volume 29 μL), and 20 μL of cell suspension (5×10^6 cells/mL) was added to the polycarbonate filter (3 μm pore size for neutrophils, 5 μm for other 3 cell types). After incubation at 37° C. in the presence of 5% CO2 for 1 hr (neutrophils), 90 min (monocytes) or 2 h (THP-1 and L1.2-CCR1), cells were removed from the upper surface of the filter by scraping. Cells that migrated into the lower chamber were quantified by using the CyQuant cell proliferation assay kit (Molecular Probes, Eugene, Oreg.) and analyzed with a Tecan (Durham, N.C.) fluorimeter (excitation at 480 nm, emission at 530 nm). Data were analyzed and plotted in arbitrary units of fluorescence using Prism (GraphPad Software, San Diego, Calif.).

Assay [1] addresses T2, CCR1 (Homo sapiens, UniProt P32246).
T2 sequence (P32246 1-355): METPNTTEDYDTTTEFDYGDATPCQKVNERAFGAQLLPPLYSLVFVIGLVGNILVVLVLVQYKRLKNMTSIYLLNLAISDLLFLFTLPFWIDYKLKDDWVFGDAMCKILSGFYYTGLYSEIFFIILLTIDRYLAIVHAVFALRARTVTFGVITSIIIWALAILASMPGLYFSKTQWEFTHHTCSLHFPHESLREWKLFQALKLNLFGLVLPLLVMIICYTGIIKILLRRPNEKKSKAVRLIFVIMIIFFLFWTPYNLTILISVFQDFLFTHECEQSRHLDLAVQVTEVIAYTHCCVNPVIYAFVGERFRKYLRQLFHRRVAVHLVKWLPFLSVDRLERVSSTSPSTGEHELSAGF
Description: Calcium mobilization in murine L1.2 cells expressing human CCR1. In kind it is cell-based. Details: expressed in transfected cells; host or cells: murine L1.2 cells (G-418 selected transfectant). Particulars: L1.2-CCR1 cells. On the procedure:
as §2, §1

The test system of the next assay is human monocytes. The assay can be described thus: Calcium mobilization in freshly isolated human monocytes. In kind it is cell-based. Particulars: undigested chemokine or peptide, 100 nM (CCL23β up to 250 nM). As for the experimental part: as §2, §1
Assay [2] has as its target T2, CCR1. Description: Competition binding with 125I-MIP-1α on human monocytes. On the set-up: endogenous in cells; host or cells: human CD14+ monocytes from buffy coats. On the procedure: Binding assay. Competition binding studies were conducted using monocytes, L1.2-CCR1 or L1.2-FPRL1 cells. Cells were incubated for 3 hr at 4° C. with ^125I-MIP-1α (final concentration ˜0.05 nM) or ^125I-WKYMVm (final concentration ˜0.01 nM) in buffer (25 mM HEPES, 140 mM NaCl, 1 mM CaCl2, 5 mM MgCl2 and 0.2% BSA, adjusted to pH 7.1) in the presence of increasing amounts of unlabeled chemokine. Reactions were aspirated onto PEI-treated GF/B glass filters using a cell harvester (Packard). Filters were washed twice (25 mM HEPES, 500 mM NaCl, 1 mM CaCl2, 5 mM MgCl2, adjusted to pH 7.1). Scintillant (MicroScint-10; 35 μl) was added to the filters and counted in a Packard Topcount scintillation counter. Data were analyzed and plotted using Prism (GraphPad Software, San Diego, Calif.).

Setting [3] is: undigested chemokine or peptide (100 nM).
Setting [4] is: 10 nM, undigested or recombinant chemokine.
Where [5] appears, read: chemokine after digestion with PMN sup #1, read-out: EC50, chemotaxis.
Where [6] appears, read: chemokine after digestion with chymase, read-out: EC50, chemotaxis.
[7] abbreviates: 10 nM input chemokine, after digestion with proteases and fluids.

Turning to “1-42 substrate peptide: synthetic 42-residue peptide consisting of the CCL23β N-terminal (1-24) and SHAAGtide (25-42) domains (MKVSVAALSCLMLVTALGSQARVTKDAETEFMMSKLPLENPV)”, in the assay with FPRL1, the “calcium mobilization in the FPRL1 transfectant” value is reported as “unable to induce calcium mobilization”.
In the case of “CCL5/RANTES: traditional CCR1 ligand chemokine”, the calcium mobilization result with human neutrophils (setting [3]) was “not”. In addition, the EC50 in the assay with THP-1 cells (2 hr, recombinant undigested chemokine, read-out: EC50, chemotaxis) was determined as 0.5 nM.
In the case of IGPQMTLSHAAG [CCXP4], the “Designation and FPRL1 Activity” value with FPRL1 was “Low activity”.
As for LWRRKIGPQMTLSH [CCXP11], the “Designation and FPRL1 Activity” value with FPRL1 is “Moderate”.
On to MLWRRKIGPQM [CCXP8], for which the “Designation and FPRL1 Activity” value in the assay with FPRL1 is on record as “Moderate”.
Still for that read-out and setting: the result for MLWRRKIGPQMT [CCXP5] reads “Moderate”.
As for MLWRRKIGPQMTLSH [CCXP3], the “Designation and FPRL1 Activity” value with FPRL1 was “High activity”.
The same measure, in the same setting: under MLWRRKIGPQMTLSHAAY [CCXP6] stands “High activity”; under RRKIGPQMTLSHAAG [CCXP2], “Low activity”.
On the same count and under the same terms, the result for WRRKIG [CCXP10] reads “Low activity”.
Same read-out and setting: under WRRKIGPQM [CCXP9] stands “Low activity”; under WRRKIGPQMTLSHAAG [CCXP7], “Low activity”.

B1: CCL15Δ24/LKN-1: recombinant CCL15/MIP-1δ lacking the N-terminal 24 residues (68aa) (protein)
chain: SFHFAADCCTSYISQSIPCSLMKSYFETSSECSKPGVIFLTKKGRQVCAKPSGPGVQDCMKKLKPYSI
With B1, the calcium mobilization result in the assay with human neutrophils (setting [3]) is recorded as “respond”; in the assay with human neutrophils (undigested chemokine or peptide (100 nM), listed as CCL15 Δ24/leukotactin) it was “only moderate calcium responses”; in the assay with CCR1 [1] (setting [4]), “substantially greater response”.

B2: CCL23/CKβ8: recombinant full-length human chemokine CCL23 (22-120), 99-residue protein (protein, listed as Homo sapiens)
chain: RVTKDAETEFMMSKLPLENPVLLDRFHATSADCCISYTPRSIPCSLLESYFETNSECSKPGVIFLTKKGRRFCANPSDKQVQVCMRMLKLDTRIKTRKN
Regarding B2, the EC50 in the assay with THP-1 cells (setting [5]) was determined as 0.15 nM; in the assay with THP-1 cells (setting [6]) it was 0.05 nM; in the assay on THP-1 cells (chemokine after digestion with synovial fluid, read-out: EC50, chemotaxis), 0.25 nM. The “fold decrease of EC50 by chymase” value in the assay with THP-1 cells (THP-1 chemotaxis) came out at 50 fold. The calcium mobilization entry in the assay on human monocytes is recorded as “strong calcium responses”; with CCR1 [1] (setting [7]) it was “uniformly active”; with CCR1 [1] (setting [4]), “either not active or weakly active”. The “inhibition of 125I-MIP-1α binding” value in the assay with CCR1 [2] is “moderate competitors”.

B3: CCL3/MIP-1α: traditional CCR1 ligand chemokine; unlabelled homologous competitor in binding (protein)
chain: ADTPTACCFSYTSRQIPQNFIADYFETSSQCSKPGVIFLTKRSRQVCADPSEEWVQKYVSDLELSA
B3: the calcium mobilization result with human neutrophils (setting [3]) was “not and only moderate calcium responses”.

B4: CCL23β: alternatively spliced form of CCL23, 116-residue protein; recombinant, R&D Systems special order (protein, listed as Homo sapiens)
chain: MKVSVAALSCLMLVTALGSQARVTKDAETEFMMSKLPLENPVLLDMLWRRKIGPQMTLSHAAGFHATSADCCISYTPRSIPCSLLESYFETNSECSKPGVIFLTKKGRRFCANPSDKQVQVCMRMLKLDTRIKTRKN
On to B4, for which the “calcium mobilization in the FPRL1 transfectant” value with FPRL1 is listed as “unable to induce calcium mobilization”. In the assay with human monocytes, the calcium mobilization entry was “very weak responses”. Further, the “inhibition of 125I-MIP-1α binding” value in the assay with CCR1 [2] is given as “lowest binding activity”.

B5: CCL15/MIP-1δ: recombinant full-length human chemokine CCL15 (92aa) (protein, listed as Homo sapiens)
chain: QFINDAETELMMSKLPLENPVVLNSFHFAADCCTSYISQSIPCSLMKSYFETSSECSKPGVIFLTKKGRQVCAKPSGPGVQDCMKKLKPYSI
Take B5: the calcium mobilization result in the assay with human neutrophils (digestions at 30-50 nM) is given as “induced calcium mobilization”; with CCR1 [1] (setting [7]) it was “greater amount of calcium”; in the assay with CCR1 [1] (setting [4]) it was “little calcium mobilization”. For the same molecule, the “fold increase in chemokine potency after cleavage” value in the assay with THP-1 cells (THP-1 cell migration, cleavage by chymase or synovial fluid) is given as “approximately 1000 fold”. Moreover, the EC50 with THP-1 cells (after cleavage by chymase or synovial fluid, read-out: EC50, cell migration) was 0.05 to 0.06 nM; in the assay on THP-1 cells (setting [5]), 0.25 nM; in the assay on THP-1 cells (setting [6]), 0.05 nM.
